Measured values published in patent US20220289850 (published 2022).

T1: human integrin avb8 (human)
T1 chain 1: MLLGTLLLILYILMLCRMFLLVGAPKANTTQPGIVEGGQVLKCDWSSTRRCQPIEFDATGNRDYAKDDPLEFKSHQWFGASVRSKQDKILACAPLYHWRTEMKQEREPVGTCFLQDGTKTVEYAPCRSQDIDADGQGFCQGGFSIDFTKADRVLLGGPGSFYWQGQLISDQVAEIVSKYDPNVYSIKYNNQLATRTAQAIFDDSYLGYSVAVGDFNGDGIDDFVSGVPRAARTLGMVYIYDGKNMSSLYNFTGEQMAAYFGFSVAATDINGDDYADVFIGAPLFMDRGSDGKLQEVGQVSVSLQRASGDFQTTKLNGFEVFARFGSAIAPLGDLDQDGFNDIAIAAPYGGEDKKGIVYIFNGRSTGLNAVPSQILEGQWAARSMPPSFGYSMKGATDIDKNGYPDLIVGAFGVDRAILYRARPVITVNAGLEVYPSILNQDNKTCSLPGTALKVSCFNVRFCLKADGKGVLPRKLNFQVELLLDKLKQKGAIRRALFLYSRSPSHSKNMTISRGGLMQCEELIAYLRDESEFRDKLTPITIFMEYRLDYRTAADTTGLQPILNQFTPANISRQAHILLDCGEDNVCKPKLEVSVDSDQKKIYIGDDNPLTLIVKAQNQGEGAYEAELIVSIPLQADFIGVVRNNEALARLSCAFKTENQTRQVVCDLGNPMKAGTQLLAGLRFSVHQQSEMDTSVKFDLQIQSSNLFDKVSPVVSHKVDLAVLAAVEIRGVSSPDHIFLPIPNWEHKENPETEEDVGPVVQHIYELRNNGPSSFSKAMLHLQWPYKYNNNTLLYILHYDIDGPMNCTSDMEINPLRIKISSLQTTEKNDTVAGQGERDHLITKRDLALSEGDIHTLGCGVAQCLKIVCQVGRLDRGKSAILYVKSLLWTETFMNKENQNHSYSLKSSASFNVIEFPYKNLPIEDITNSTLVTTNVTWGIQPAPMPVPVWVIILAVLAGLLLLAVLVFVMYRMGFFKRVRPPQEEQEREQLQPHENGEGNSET
T1 chain 2: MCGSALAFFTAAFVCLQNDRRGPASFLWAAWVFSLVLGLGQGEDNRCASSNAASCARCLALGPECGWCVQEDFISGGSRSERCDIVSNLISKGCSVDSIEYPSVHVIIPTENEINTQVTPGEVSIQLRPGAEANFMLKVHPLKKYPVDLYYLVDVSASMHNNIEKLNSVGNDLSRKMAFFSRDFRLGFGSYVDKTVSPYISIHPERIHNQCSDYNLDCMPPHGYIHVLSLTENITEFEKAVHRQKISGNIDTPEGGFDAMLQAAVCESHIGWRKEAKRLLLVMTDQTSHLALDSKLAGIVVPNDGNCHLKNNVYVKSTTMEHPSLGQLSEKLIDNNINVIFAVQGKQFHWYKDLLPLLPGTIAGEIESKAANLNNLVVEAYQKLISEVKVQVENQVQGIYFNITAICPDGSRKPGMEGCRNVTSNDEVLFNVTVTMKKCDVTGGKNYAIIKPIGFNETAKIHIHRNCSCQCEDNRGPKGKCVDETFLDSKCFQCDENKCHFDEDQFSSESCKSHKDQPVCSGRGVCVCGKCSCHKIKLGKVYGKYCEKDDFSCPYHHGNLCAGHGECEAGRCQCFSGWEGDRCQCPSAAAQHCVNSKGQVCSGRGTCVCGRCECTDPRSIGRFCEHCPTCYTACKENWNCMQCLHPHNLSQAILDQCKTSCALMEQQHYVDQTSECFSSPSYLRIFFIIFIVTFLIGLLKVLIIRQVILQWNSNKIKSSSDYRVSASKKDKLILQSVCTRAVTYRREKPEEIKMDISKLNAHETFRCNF

B1: Mouse hybridoma ADWA-11 Fab (antibody, V domains shown)
VH: EVQLQQSGAELVRPGAFVKLSCKASGFNIKDYYMNWVLQRPEQGLEWIGWIDPDNGNTIYDPKFQGKASITADTSSNTAYLQLSSLTSEDTAVYYCARRLLMDYWGQGTSVTVSS
VL: DIVMTQAAPSVPVTPGESVSISCRSTKSLLHFNGNTYLFWFLQRPGQSPQRLIYYMSNLASGVPDRFSGRGSGTDFTLRISRVEAEDVGVYYCMQSLEYPFTFGTGTKLEIK
B2: ADWA11 VH05/VK01 (VH05-2_VK01) Fab (antibody, V domains shown)
VH: EVQLVESGGGLVQPGGSLRLSCAASGFNIKDYYMNWVRQAPGKGLEWVGWIDPDNGNTIYDPKFQGRFTISADTSKNSAYLQMNSLRAEDTAVYYCARRLLMDYWGQGTLVTVSS
VL: DIQMTQSPSSLSASVGDRVTITCRSTKSLLHFNGNTYLFWYQQKPGKAPKRLIYYMSNLASGVPSRFSGSGSGTDFTLTISSLQPEDFATYYCMQSLEYPFTFGQGTKVEIK

Target: T1, human integrin avb8
Experiment: SPR

Row | Binder | Kd [nM]
1 | B1 | 0.536
2 | B2 | < 0.1
